From paper PMC4844956

How the values were obtained:
[1] = target: HEV ORF3 protein fused to the GAL4 binding domain; assay: yeast two-hybrid quantitative α-galactosidase assay; conditions: triplicate samples, parent: est. 11, read off a plot
[2] = target: HEV methyltransferase fused to the GAL4 binding domain (UniProt P33424); assay: as above; conditions: triplicate samples, parent: est. 8.7, read off a plot
[3] = target: GST fused X-domain (Hepatitis E virus) (UniProt P33424); assay: pull-down; ~500 fmol ORF3-His or ~500 fmol Met-His alone with 500 fmol GST-X; bound fraction against input by band intensity
[4] = target: GST fused X-domain (Hepatitis E virus) (UniProt P33424); assay: pull-down; competition: ORF3-His and Met-His together with 500 fmol GST-X, equimolar (~500 fmol) or with 1 and 2 pmol of one of them

HEV X-domain (macro domain) fused to the GAL4 activation domain (from UniProt P33424) I66E; I67E
response (normalized α-gal units) ([1]; P=0.002 vs wild type X): 6.2

HEV X-domain (macro domain) fused to the GAL4 activation domain (from UniProt P33424) L94R
response (normalized α-gal units) ([1]; P=0.056 vs wild type X): 13 | response (normalized α-gal units) ([2]; P=0.82 vs wild type X): 8.3

HEV X-domain (macro domain) fused to the GAL4 activation domain (from UniProt P33424) L101E; L102E
response (normalized α-gal units) [1]: 3.2 | response (normalized α-gal units) [2]: 1.9

HEV X-domain (macro domain) fused to the GAL4 activation domain (from UniProt P33424) R93E
response (normalized α-gal units) ([1]; P=0.077 vs wild type X): 13 | response (normalized α-gal units) ([2]; P=0.51 vs wild type X): 7.6

HEV X-domain (macro domain) fused to the GAL4 activation domain (from UniProt P33424) R93E; L101E; L102E
response (normalized α-gal units) [1]: 2.9 | response (normalized α-gal units) [2]: 1.6

His-tagged ORF3 (pRSET ORF3) (from UniProt O90299 1-114) (natural protein)
percent of input pulled down [3]: 25% | percent of input in the bound fraction with equimolar Met-His present [4]: 10%
